This assay addresses PsgIBP_L, larger (28 kDa) ice-binding protein isoform from Psychromyces glacialis (Psychromyces glacialis). Description: SEC; analytical Superose12 column, 20 mM Tris-HCl pH 8.0 + 500 mM NaCl, 0.8 ml/min, 4 °C; 0.5 mL of 1 mg/ml protein loaded; molecular weight from a calibration line with five reference proteins. (In general: SEC sorts molecules by how far they enter the pores of the column.)

One may read the stoichiometry N as a count of units in the complex or per binding partner. On to “PsgIBP_L, larger (28 kDa) ice-binding protein isoform from Psychromyces glacialis (natural protein)”, for which the stoichiometry N came out at 2.
